Laboratory results from article doi:10.1101/2020.10.16.343392 (bioRxiv, 2020).

Biological target: the molecule itself
Experiment: crystal structure

B1: EfgA (enhanced formaldehyde growth protein A) from Methylorubrum extorquens PA1 (natural protein)
chain: MHVTIEQAEKAIQAARAKAVELGTQMCIAIVDSGGNLKAFHRMDGAWVGSIDIAQKKAKTAVFFGMKTGQIGALSQPGGSLYGIEHSNQGLITFPGGIPIVDADGEMSGAIGVSGSSVENDDAVALAGASAIGDTELPDHPWRT
stoichiometry N: 4
